From PMC8406286, “A Recently Assembled Degradation Pathway for 2,3-Dichloronitrobenzene in Diaphorobacter sp. Strain JS3051” (mBio, 2021) come the findings set out here.

Details in all cases: 50 mM Tris-HCl pH 8.0, 25°C
Substrate in series [1]: Oc1ccccc1O
As to the kind of experiment: spectrophotometric ring-cleavage assay, A260. It counts as biochemical, Diaphorobacter sp. JS3051.

Substrate in series [2]: Cc1ccc(O)c(O)c1
As to the kind of experiment: spectrophotometric ring-cleavage assay, A260. It counts as biochemical, Diaphorobacter sp. JS3051.

Substrate in series [3]: Cc1cccc(O)c1O
As to the kind of experiment: spectrophotometric ring-cleavage assay, A260. Format: biochemical, Diaphorobacter sp. JS3051.

Substrate in series [4]: Oc1ccc(Cl)c(Cl)c1O
The series can be described thus: purified protein.

Substrate in series [5]: Oc1ccc(Cl)cc1O
The series can be described thus: purified protein.

Substrate in series [6]: Oc1cccc(Cl)c1O
As to the kind of experiment: purified protein.

B1: H6-DccA (Diaphorobacter sp. JS3051) (protein)
chain: MDKRVAEVAGAIVEAVRKILLDKRVTEAEYRAGVDYLTEVAQTRETAVLLDAFLNSTIIEGKAQRSRTSAPGMQGPYFLEGAPVVEGVLKTYDTDDHKPLIIRGTVRSDTGELLAGAVIDVWHSTPDGLYSGIHDNIPMDYYRGKLVTDSQGNFRVRTTMPVPYQIPYEGPTGRLLGHLGSHTWRPAHVHFKVRKDGFEPLTTQYYFEGGKWVDDDCCHGVTPDLITPETIEDGVRVMTLDFVIEREQAEQRKSATETVA
notes: full-length gene in pET-28a(+) (NdeI/BamHI), N-terminal 6xHis tag, purified from E. coli BL21(DE3)
As a reminder, the Km is the substrate concentration at which the rate is half of its maximum. For orientation: Vmax means the rate approached at saturating substrate. A word on the kcat: it is the number of substrate molecules converted per active site and unit of time at saturation. By kcat/Km is commonly meant the turnover number divided by the Michaelis constant. For the protein B1, the Km in series [1] turned out to be 9.06 ± 0.88 µM; in series [2], 10.40 ± 1.35 µM; in series [3] it was 12.85 ± 1.52 µM; in series [4], 0.48 ± 0.10 µM; in series [5], 0.73 ± 0.06 µM; in series [6], 2.58 ± 0.38 µM. Further, the Vmax in series [1] amounted to 0.44 µM/min; in series [2] it was 4.63 µM/min; in series [3], 0.63 µM/min; in series [4], 0.43 µM/min; in series [5], 0.78 µM/min; in series [6] it was 0.42 µM/min. The kcat in series [1] is 0.363 s⁻¹; in series [2], 3.86 s⁻¹; in series [3], 0.525 s⁻¹; in series [4], 0.355 s⁻¹; in series [5], 0.653 s⁻¹; in series [6], 0.35 s⁻¹. Further, the specificity constant (kcat/Km) in series [1] came out at 40000 M⁻¹ s⁻¹; in series [2] it was 372000 M⁻¹ s⁻¹; in series [3] it was 41700 M⁻¹ s⁻¹; in series [4], 737000 M⁻¹ s⁻¹; in series [5], 893000 M⁻¹ s⁻¹; in series [6], 135000 M⁻¹ s⁻¹.
